The numbers were not newly measured in publication PMC6176727, which cites them from elsewhere.

The target of series [1] is CLV1 (Arabidopsis thaliana) (UniProt Q9SYQ8).
The target of series [2] is CLV1 ectodomain (Arabidopsis thaliana) (UniProt Q9SYQ8).

One may read the Kd as the concentration at which binding is half-saturated. As for “CLV3p (13-amino-acid) (from UniProt Q9XF04)”, the values for the Kd in series [1] and in series [2] were 280 nM and 1 nM, respectively.
